Measurements published in article PMC5175368.

Target: PA63 (cleaved protective antigen) (Bacillus anthracis) (UniProt P13423)
Assay: filter binding
Conditions: N15 and N23 = AEGIS dP

PA63 (cleaved protective antigen) (Bacillus anthracis), sequence (P13423 197-764): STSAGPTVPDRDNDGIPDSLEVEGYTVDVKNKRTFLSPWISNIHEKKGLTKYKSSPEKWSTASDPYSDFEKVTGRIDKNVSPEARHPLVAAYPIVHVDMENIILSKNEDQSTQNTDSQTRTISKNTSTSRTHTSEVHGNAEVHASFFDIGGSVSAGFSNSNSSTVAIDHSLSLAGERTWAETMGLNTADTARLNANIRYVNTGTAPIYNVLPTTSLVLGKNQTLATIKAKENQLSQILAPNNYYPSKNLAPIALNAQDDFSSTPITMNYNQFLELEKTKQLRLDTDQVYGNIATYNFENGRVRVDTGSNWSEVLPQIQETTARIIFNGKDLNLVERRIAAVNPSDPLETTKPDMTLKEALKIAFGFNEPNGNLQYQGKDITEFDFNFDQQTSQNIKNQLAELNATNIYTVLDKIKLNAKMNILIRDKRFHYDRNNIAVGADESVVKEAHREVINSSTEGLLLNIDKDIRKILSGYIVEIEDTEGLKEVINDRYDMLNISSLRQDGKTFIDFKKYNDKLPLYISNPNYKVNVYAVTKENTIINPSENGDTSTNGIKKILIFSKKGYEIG

In the case of “CGTGTAAACCATGGNGTGAGTGNGTAGGTGTCCTGAGGAGGT [PA1T4A6A7]”, the Kd is reported as 2290 nM.
